Experimental data published in patent US20220356230A1.

Target: SARS-CoV-2 Spike Protein (RBD)(R319-F541).mmH, unmodified (SARS-CoV-2)
Test: Luminex, supernatant on bead-coupled RBD.mmH
Conditions: remark: other sources report otherwise

B1: mAb11006 (antibody, V domains shown)
VH: EVQLVESGGGLVQPGGSLRLSCAASGFIVSRNYMSWVRQAPGKGLEWVSVIYSGGSTFYADSVKGRFTISRHNSKNTLYLQMNSLKAEDTAVYYCARELRGYFDYWGQGTLVTVSS
VL: DIQLTQSPSFLSASVGDRVTITCWASQGISSYLAWYQQKPGKAPKLLIYAASTLQSGVPSRFSGSGSGTEFTLTISSLQPEDFATYYCQLLNSYPYTFGQGTKLEIK
Binding signal (MFI): 2040 MFI
